Experimental data published in PMC9482650, “Quantitative fragmentomics allow affinity mapping of interactomes” (Nature Communications, 2022).

T1: APBA1_1, Q02410
T1 sequence (Q02410 651-752, limits assumed, looked up): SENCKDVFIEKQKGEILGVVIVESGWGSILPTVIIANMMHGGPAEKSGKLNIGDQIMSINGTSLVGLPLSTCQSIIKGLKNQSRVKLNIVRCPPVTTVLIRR

T2: APBA2_2, Q99767
T2 sequence (Q99767 654-744, limits assumed, looked up): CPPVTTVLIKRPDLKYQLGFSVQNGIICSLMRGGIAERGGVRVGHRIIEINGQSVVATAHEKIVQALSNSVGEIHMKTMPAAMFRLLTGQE

T3: DFNB31_2, Q9P202
T3 sequence (Q9P202 274-371, limits assumed, looked up): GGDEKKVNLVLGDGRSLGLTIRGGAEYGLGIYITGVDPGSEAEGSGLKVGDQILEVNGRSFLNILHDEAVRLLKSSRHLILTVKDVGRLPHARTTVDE

T4: DFNB31_3, Q9P202
T4 sequence (Q9P202 811-907, limits assumed, looked up): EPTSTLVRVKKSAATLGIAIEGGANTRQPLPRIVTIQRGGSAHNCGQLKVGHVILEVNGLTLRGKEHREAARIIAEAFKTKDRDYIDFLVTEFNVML

T5: DLG3_1, Q92796
T5 sequence (Q92796 125-227, limits assumed, looked up): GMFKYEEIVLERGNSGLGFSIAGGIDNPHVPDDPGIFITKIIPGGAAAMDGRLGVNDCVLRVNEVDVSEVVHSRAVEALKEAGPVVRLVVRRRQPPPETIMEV

T6: FRMPD1, Q5SYB0
T6 sequence (Q5SYB0 52-145, limits assumed, looked up): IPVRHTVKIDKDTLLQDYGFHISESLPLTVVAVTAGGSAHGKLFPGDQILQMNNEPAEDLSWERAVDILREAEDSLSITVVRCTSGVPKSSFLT

T7: GRIP1_2, Q9Y3R0
T7 sequence (Q9Y3R0 145-248, limits assumed, looked up): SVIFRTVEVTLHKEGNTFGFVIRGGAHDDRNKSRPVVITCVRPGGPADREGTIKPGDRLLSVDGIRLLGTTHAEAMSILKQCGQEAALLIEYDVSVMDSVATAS

T8: HTRA4, P83105
T8 sequence (P83105 378-476, limits assumed, looked up): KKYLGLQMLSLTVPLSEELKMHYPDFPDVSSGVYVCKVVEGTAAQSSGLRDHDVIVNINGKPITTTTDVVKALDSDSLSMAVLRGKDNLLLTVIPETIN

T9: LIN7A, O14910
T9 sequence (O14910 103-200, limits assumed, looked up): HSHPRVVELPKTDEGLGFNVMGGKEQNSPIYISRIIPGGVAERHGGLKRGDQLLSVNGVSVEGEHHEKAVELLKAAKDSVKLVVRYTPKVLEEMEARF

T10: MPP2, Q14168
T10 sequence (Q14168 180-250, limits assumed, looked up): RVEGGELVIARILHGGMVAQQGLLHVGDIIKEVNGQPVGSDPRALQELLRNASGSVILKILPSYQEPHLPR

T11: PARD3B_1, Q8TEW8
T11 sequence (Q8TEW8 196-299, limits assumed, looked up): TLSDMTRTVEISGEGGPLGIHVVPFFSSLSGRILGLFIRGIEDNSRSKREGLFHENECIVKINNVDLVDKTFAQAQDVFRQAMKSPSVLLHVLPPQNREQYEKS

T12: SNTA1, Q13424
T12 sequence (Q13424 82-180, limits assumed, looked up): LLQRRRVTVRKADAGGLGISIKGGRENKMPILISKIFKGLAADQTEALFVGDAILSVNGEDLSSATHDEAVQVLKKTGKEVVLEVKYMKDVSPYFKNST


What was measured:
Assay in all cases: holdup assay
Design in all cases: key: below the threshold = too weak to quantify, mostly under pKd 3.1 to 4
Details in all cases: plain residues with an end cap or a label only (N-terminal biotin on a linker: ahx)
APBA1_1, Q02410 = target: T1, APBA1_1, Q02410
APBA2_2, Q99767 = target: T2, APBA2_2, Q99767
DFNB31_2, Q9P202 = target: T3, DFNB31_2, Q9P202
DFNB31_3, Q9P202 = target: T4, DFNB31_3, Q9P202
DLG2_2, Q15700 = target: DLG2_2, Q15700
DLG3_1, Q92796 = target: T5, DLG3_1, Q92796
FRMPD1, Q5SYB0 = target: T6, FRMPD1, Q5SYB0
FRMPD4, Q14CM0 = target: FRMPD4, Q14CM0
GORASP2, Q9H8Y8 = target: GORASP2, Q9H8Y8
GRASP, Q7Z6J2 = target: GRASP, Q7Z6J2
GRIP1_2, Q9Y3R0 = target: T7, GRIP1_2, Q9Y3R0
GRIP2_7, Q9C0E4 = target: GRIP2_7, Q9C0E4
HTRA1, Q92743 = target: HTRA1, Q92743
HTRA4, P83105 = target: T8, HTRA4, P83105
IL16_3, Q14005 = target: IL16_3, Q14005
LIN7A, O14910 = target: T9, LIN7A, O14910
LNX1_2, Q8TBB1 = target: LNX1_2, Q8TBB1
MAGI1_1, Q96QZ7 = target: MAGI1_1, Q96QZ7
MAGI2_4, Q86UL8 = target: MAGI2_4, Q86UL8
MAGI2_6, Q86UL8 = target: MAGI2_6, Q86UL8
MAST2, Q6P0Q8 = target: MAST2, Q6P0Q8
MPP2, Q14168 = target: T10, MPP2, Q14168
PARD3B_1, Q8TEW8 = target: T11, PARD3B_1, Q8TEW8
SCRIB_1, Q14160 = target: SCRIB_1, Q14160
SNTA1, Q13424 = target: T12, SNTA1, Q13424

SCRIB_1, Q14160, sequence (Q14160 718-814): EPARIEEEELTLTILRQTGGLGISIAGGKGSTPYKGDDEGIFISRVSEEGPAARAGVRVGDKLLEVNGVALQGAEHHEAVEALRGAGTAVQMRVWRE
LNX1_2, Q8TBB1, sequence (Q8TBB1 371-470): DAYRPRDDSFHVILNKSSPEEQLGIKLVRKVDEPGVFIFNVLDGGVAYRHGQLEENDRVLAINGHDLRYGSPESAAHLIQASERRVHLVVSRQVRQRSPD
GRIP2_7, Q9C0E4, sequence (Q9C0E4 934-1023): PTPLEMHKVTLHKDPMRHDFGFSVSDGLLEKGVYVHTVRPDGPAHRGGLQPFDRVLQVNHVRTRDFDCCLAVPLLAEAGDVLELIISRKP
MAGI2_6, Q86UL8, sequence (Q86UL8 1141-1229): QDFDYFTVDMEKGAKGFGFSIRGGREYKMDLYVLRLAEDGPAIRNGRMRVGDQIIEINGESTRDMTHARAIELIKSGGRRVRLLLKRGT
MAGI1_1, Q96QZ7, sequence (Q96QZ7 1-106): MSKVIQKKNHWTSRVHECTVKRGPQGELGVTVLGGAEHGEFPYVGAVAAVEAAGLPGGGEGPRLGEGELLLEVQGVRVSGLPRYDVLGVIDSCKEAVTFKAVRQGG
MAST2, Q6P0Q8, sequence (Q6P0Q8 1099-1202): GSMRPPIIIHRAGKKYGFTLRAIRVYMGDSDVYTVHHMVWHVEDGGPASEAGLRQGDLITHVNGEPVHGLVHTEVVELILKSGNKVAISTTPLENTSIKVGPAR
GRASP, Q7Z6J2, sequence (Q7Z6J2 96-193): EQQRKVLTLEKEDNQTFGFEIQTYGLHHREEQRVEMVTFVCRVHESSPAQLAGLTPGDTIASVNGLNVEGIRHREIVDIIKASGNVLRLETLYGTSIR
IL16_3, Q14005, sequence (Q14005 1107-1207): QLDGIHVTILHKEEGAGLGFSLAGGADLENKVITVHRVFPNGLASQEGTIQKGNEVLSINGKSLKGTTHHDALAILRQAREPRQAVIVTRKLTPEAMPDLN
FRMPD4, Q14CM0, sequence (Q14CM0 67-160): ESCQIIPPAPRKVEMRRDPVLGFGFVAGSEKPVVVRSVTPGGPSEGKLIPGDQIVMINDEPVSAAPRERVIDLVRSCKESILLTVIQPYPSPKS
MAGI2_4, Q86UL8, sequence (Q86UL8 772-865): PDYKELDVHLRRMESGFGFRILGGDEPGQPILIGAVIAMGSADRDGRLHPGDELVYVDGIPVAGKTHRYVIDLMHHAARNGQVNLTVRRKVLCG
HTRA1, Q92743, sequence (Q92743 360-477): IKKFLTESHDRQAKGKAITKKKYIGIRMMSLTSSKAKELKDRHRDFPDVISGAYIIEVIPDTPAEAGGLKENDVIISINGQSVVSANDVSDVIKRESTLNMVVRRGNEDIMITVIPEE
DLG2_2, Q15700, sequence (Q15700 189-283): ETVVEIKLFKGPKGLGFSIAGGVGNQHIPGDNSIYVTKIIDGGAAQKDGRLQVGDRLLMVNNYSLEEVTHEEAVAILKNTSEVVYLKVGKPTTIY

Row | pKd (APBA1_1, Q02410) | pKd (APBA2_2, Q99767) | pKd (DFNB31_2, Q9P202) | pKd (DFNB31_3, Q9P202) | pKd (DLG2_2, Q15700) | pKd (DLG3_1, Q92796) | pKd (FRMPD1, Q5SYB0) | pKd (FRMPD4, Q14CM0) | pKd (GORASP2, Q9H8Y8) | pKd (GRASP, Q7Z6J2) | pKd (GRIP2_7, Q9C0E4) | pKd (HTRA1, Q92743) | pKd (HTRA4, P83105) | pKd (IL16_3, Q14005) | pKd (LIN7A, O14910) | pKd (LNX1_2, Q8TBB1) | pKd (MAGI1_1, Q96QZ7) | pKd (MAGI2_4, Q86UL8) | pKd (MAGI2_6, Q86UL8) | pKd (MAST2, Q6P0Q8) | Binder | other results
1 | below the threshold | below the threshold | below the threshold | below the threshold | below the threshold | below the threshold | below the threshold | below the threshold | below the threshold | 4.86 | below the threshold | 4.18 | below the threshold | below the threshold | below the threshold | below the threshold | below the threshold | below the threshold | 4.57 | 4.92 | EDEDEQVSAV [RAPGEF2, Q9Y4G8] | pKd (GRIP1_2, Q9Y3R0): below the threshold; pKd (MPP2, Q14168): below the threshold; pKd (PARD3B_1, Q8TEW8): below the threshold; pKd (SCRIB_1, Q14160): below the threshold; pKd (SNTA1, Q13424): 3.61
2 | below the threshold | below the threshold | below the threshold | below the threshold | below the threshold | below the threshold | below the threshold | 3.58 | 4.33 | below the threshold | 4.55 | 4.84 | below the threshold | below the threshold | below the threshold | 3.58 | below the threshold | below the threshold | below the threshold | below the threshold | KKNKDKEYYV [NRXN1, Q9ULB1] | pKd (GRIP1_2, Q9Y3R0): below the threshold; pKd (MPP2, Q14168): 3.69; pKd (PARD3B_1, Q8TEW8): below the threshold; pKd (SCRIB_1, Q14160): below the threshold; pKd (SNTA1, Q13424): below the threshold
3 | below the threshold | below the threshold | below the threshold | below the threshold | below the threshold | below the threshold | below the threshold | below the threshold | below the threshold | 5.03 | below the threshold | below the threshold | below the threshold | below the threshold | below the threshold | below the threshold | below the threshold | below the threshold | below the threshold | 4.25 | GIFPTLTSPL [SHROOM3, Q8TF72] | pKd (MPP2, Q14168): below the threshold; pKd (PARD3B_1, Q8TEW8): below the threshold; pKd (SCRIB_1, Q14160): below the threshold; pKd (SNTA1, Q13424): below the threshold
